Changes are numbered by the printed parent chain. Numbers in names are those of the source.
Tests used:
[1] = substrate: O=P(O)(O)OP(=O)(O)O; test: phosphate release, BIOMOL Green, A650; type: biochemical, Thermus thermophilus; conditions: 2 mM MgCl2, 100 mM KCl, 50 mM Tris-HCl pH 7.5, 60 °C
Text: phosphate release, BIOMOL Green, A650 on ttPPase (inorganic pyrophosphatase)

purified protein [2] = substrate: O=c1ccn([C@@H]2O[C@H](COP(=O)(O)O)[C@@H](O)[C@H]2O)c(=O)[nH]1; test: purified protein; conditions: 1 mM ATP, 25 °C, pH 7.5, 5 mM MgCl2, 25.0 °C
[3] = substrate: Nc1ncnc2c1ncn2[C@@H]1O[C@H](COP(=O)(O)OP(=O)(O)OP(=O)(O)O)[C@@H](O)[C@H]1O; test: pyruvate kinase/lactate dehydrogenase coupled assay, A340; type: biochemical, Thermus thermophilus; conditions: excess UMP (methods print 1 mM CMP), 25 °C, pH 7.5, 5 mM MgCl2
A340 spectrophotometry [4] = substrate: NC(=O)C1=CN([C@@H]2O[C@H](COP(=O)(O)OP(=O)(O)OC[C@H]3O[C@@H](n4cnc5c(N)ncnc54)[C@H](O)[C@@H]3O)[C@@H](O)[C@H]2O)C=CC1; test: A340 spectrophotometry; type: biochemical, Thermus thermophilus; conditions: 25 μM oxaloacetate, 5 mM MgCl2, 100 mM KCl, 50 mM Tris-HCl pH 7.5, 30 °C
Text: A340 spectrophotometry on ttMDH (malate dehydrogenase)

purified protein [5] = substrate: O=C(O)CC(=O)C(=O)O; test: purified protein; conditions: 0.15 mM NADH, 5 mM MgCl2, 100 mM KCl, 50 mM Tris-HCl pH 7.5, 30 °C, 30.0 °C
[6] = substrate: Nc1ncnc2c1ncn2[C@@H]1O[C@H](COP(=O)(O)O)[C@@H](O)[C@H]1O; test: pyruvate kinase/lactate dehydrogenase coupled assay, A340; type: biochemical, Thermus thermophilus; conditions: 1 mM ATP, 5 mM MgCl2, 100 mM KCl, 50 mM Tris-HCl pH 7.5, 25 °C
Text: pyruvate kinase/lactate dehydrogenase coupled assay, A340 on ttAMPK (AMP kinase)

[7] = substrate: Nc1ncnc2c1ncn2[C@@H]1O[C@H](COP(=O)(O)OP(=O)(O)OP(=O)(O)O)[C@@H](O)[C@H]1O; test: as above; type: biochemical, Thermus thermophilus; conditions: 1 mM CMP, 25 °C, pH 7.5, 5 mM MgCl2
Text: (§1) pyruvate kinase/lactate dehydrogenase coupled assay, A340 on ttCMPK (CMP kinase)

[8] = substrate: Nc1ccn([C@@H]2O[C@H](COP(=O)(O)O)[C@@H](O)[C@H]2O)c(=O)n1; test: as above; type: biochemical, Thermus thermophilus; conditions: 1 mM ATP, 25 °C, pH 7.5, 5 mM MgCl2
Text: as §1

A340 spectrophotometry [9] = substrate: O=C(O)C[C@H](C(=O)O)[C@@H](O)C(=O)O; test: A340 spectrophotometry; type: biochemical, Thermus thermophilus; conditions: 4 mM NADP+, 5 mM MgCl2, 100 mM KCl, 50 mM Tris-HCl pH 7.5, 60 °C
Text: (§2) A340 spectrophotometry on ttIDH (isocitrate dehydrogenase)

A340 spectrophotometry [10] = substrate: NC(=O)c1ccc[n+]([C@@H]2O[C@H](COP(=O)(O)OP(=O)(O)OC[C@H]3O[C@@H](n4cnc5c(N)ncnc54)[C@H](OP(=O)(O)O)[C@@H]3O)[C@@H](O)[C@H]2O)c1; test: A340 spectrophotometry; type: biochemical, Thermus thermophilus; conditions: 2 mM isocitrate, 5 mM MgCl2, 100 mM KCl, 50 mM Tris-HCl pH 7.5, 60 °C
Text: as §2

B1: ttPPase (inorganic pyrophosphatase) (Thermus thermophilus HB8) (protein)
chain: ANLKSLPVGDKAPEVVHMVIEVPRGSGNKYEYDPDLGAIKLDRVLPGAQFYPGDYGFIPSTLAEDGDPLDGLVLSTYPLLPGVVVEVRVVGLLLMEDEKGGDAKVIGVVAEDQRLDHIQDIGDVPEGVKQEIQHFFETYKALEAKKGKWVKVTGWRDRKAALEEVRACIARYKG
notes: recombinant in E. coli C41(DE3)pRARE2, pET-11a, no tag mentioned
With B1 the Km [1] was 17 ± 2 µM and the kcat [1] was 62 ± 11 s⁻¹.

B2: ttPPase (inorganic pyrophosphatase) (Thermus thermophilus HB8; Y140F) (protein)
chain: B1 chain with Y139F
notes: as for B1
In the case of B2, the Km [1] is reported as 53 ± 0 µM and the kcat [1] is reported as 19 ± 3 s⁻¹.

B3: ttUMPK (UMP kinase) (Thermus thermophilus HB8) (protein)
chain: MKYKRVLLKLSGEFLTRNGFGIEPEATQALAREIKAAYDTGVQLAIVIGAGNLWRGARQGVGMDRATADYIGMLATIMNALALQDALESLGVPTRVQTALTITQVAEPYIRRRALRHLEKERIVIFGGGTGNPFFSTDTAAALRALEVGAEVVLMAKNKVDGVYSDDPRKNPEAVRFDELTYLEVLNRGLQVMDTTAITLCMEAGLPIVVFDIFKPGALVGIIQGEKVGTLIH
notes: recombinant in E. coli C41(DE3)pRARE2, pET-11a, no tag mentioned; hexamer (prokaryotic UMP kinases)
Protein B3 has a Km (purified protein [2]) of 74 ± 10 µM, a kcat (purified protein [2]) of 21 ± 1 s⁻¹ and a Km [3] of 214 ± 7 µM. It also gave a kcat [3] of 14 ± 0 s⁻¹.

B4: ttUMPK (UMP kinase) (Thermus thermophilus HB8; S11A) (protein)
chain: B3 chain with S11A
notes: as for B3
In the case of B4, the Km [3] is reported as 732 ± 206 µM and the kcat [3] is reported as 0.04 ± 0.02 s⁻¹.

B5: ttMDH (malate dehydrogenase) (Thermus thermophilus HB8) (protein)
chain: MKAPVRVAVTGAAGQIGYSLLFRIAAGEMLGKDQPVILQLLEIPQAMKALEGVVMELEDCAFPLLAGLEATDDPKVAFKDADYALLVGAAPRKAGMERRDLLQVNGKIFTEQGRALAEVAKKDVKVLVVGNPANTNALIAYKNAPGLNPRNFTAMTRLDHNRAKAQLAKKTGTGVDRIRRMTVWGNHSSTMFPDLFHAEVDGRPALELVDMEWYEKVFIPTVAQRGAAIIQARGASSAASAANAAIEHIRDWALGTPEGDWVSMAVPSQGEYGIPEGIVYSFPVTAKDGAYRVVEGLEINEFARKRMEITAQELLDEMEQVKALGLI
notes: as for B1
B5 was tested, and the Km (A340 spectrophotometry [4]) was 2.7 ± 0.9 µM, the kcat (A340 spectrophotometry [4]) was 126 ± 14 s⁻¹ and the Km (purified protein [5]) was 8.6 ± 0.4 µM. The kcat (purified protein [5]) was 203 ± 5 s⁻¹.

B6: ttMDH (malate dehydrogenase) (Thermus thermophilus HB8; S236A) (protein)
chain: B5 chain with S236A
notes: as for B1
With B6 the Km (A340 spectrophotometry [4]) was 7.6 ± 0.2 µM, the kcat (A340 spectrophotometry [4]) was 468 ± 15 s⁻¹ and the Km (purified protein [5]) was 52 ± 2 µM. The kcat (purified protein [5]) was 622 ± 8 s⁻¹.

B7: ttAMPK (AMP kinase) (Thermus thermophilus HB8) (protein)
chain: MDVGQAVIFLGPPGAGKGTQASRLAQELGFKKLSTGDILRDHVARGTPLGERVRPIMERGDLVPDDLILELIREELAERVIFDGFPRTLAQAEALDRLLSETGTRLLGVVLVEVPEEELVRRILRRAELEGRSDDNEETVRRRLEVYREKTEPLVGYYEARGVLKRVDGLGTPDEVYARIRAALGI
notes: recombinant in E. coli Rosetta2(DE3), pET-3a, no tag mentioned; monomer
Work on B7 yielded a Km [6] of 23 ± 1 µM and a kcat [6] of 111 ± 3 s⁻¹.

B8: ttAMPK (AMP kinase) (Thermus thermophilus HB8; S34E) (protein)
chain: B7 chain with S34E
notes: as for B7
B8 was tested, and the Km [6] was 153 ± 1 µM and the kcat [6] was 3.7 s⁻¹.

B9: ttAMPK (AMP kinase) (Thermus thermophilus HB8; S34A) (protein)
chain: B7 chain with S34A
notes: as for B7
In the case of B9, the Km [6] is reported as 71 ± 2 µM and the kcat [6] is reported as 142 ± 4 s⁻¹.

B10: ttCMPK (CMP kinase) (Thermus thermophilus HB8; S11E) (protein)
chain: MRGIVTIDGPEASGKSSVARRVAAALGVPYLSSGLLYRAAAFLALRAGVDPGDEEGLLALLEGLGVRLLAQAEGNRVLADGEDLTSFLHTPEVDRVVSAVARLPGVRAWVNRRLKEVPPPFVAEGRDMGTAVFPEAAHKFYLTASPEVRAWRRARERPQAYEEVLRDLLRRDERDKAQSAPAPDALVLDTGGMTLDEVVAWVLAHIRR
notes: recombinant in E. coli C41(DE3)pRARE2, pET-11a, no tag mentioned; monomer
In the case of B10, the Km [7] is reported as 60 ± 14 µM and the kcat [7] is reported as 0.05 ± 0.01 s⁻¹.

B11: ttCMPK (CMP kinase) (Thermus thermophilus HB8; S11A) (protein)
chain: B10 chain with E11A
notes: as for B10
B11 gave a Km [8] of 53 ± 3 µM and a kcat [8] of 57 ± 8 s⁻¹.

B12: ttCMPK (CMP kinase) (Thermus thermophilus HB8) (protein)
chain: B10 chain with E11S
notes: as for B10
B12 showed a Km [8] of 61 ± 19 µM, a kcat [8] of 54 ± 16 s⁻¹ and a Km [7] of 53 ± 1 µM. It also gave a kcat [7] of 40 ± 1 s⁻¹.

B13: ttIDH (isocitrate dehydrogenase) (Thermus thermophilus HB8) (protein)
chain: PLITTETGKKMHVLEDGRKLITVIPGDGIGPECVEATLKVLEAAKAPLAYEVREAGASVFRRGIASGVPQETIESIRKTRVVLKGPLETPVGYGEKSANVTLRKLFETYANVRPVREFPNVPTPYAGRGIDLVVVRENVEDLYAGIEHMQTPSVAQTLKLISWKGSEKIVRFAFELARAEGRKKVHCATKSNIMKLAEGTLKRAFEQVAQEYPDIEAVHIIVDNAAHQLVKRPEQFEVIVTTNMNGDILSDLTSGLIGGLGFAPSANIGNEVAIFEAVHGSAPKYAGKNVINPTAVLLSAVMMLRYLEEFATADLIENALLYTLEEGRVLTGDVVGYDRGAKTTEYTEAIIQNLGKTPRKTQVRGYKPFRLPQVDGAIAPIVPRSRRVVGVDVFVETNLLPEALGKALEDLAAGTPFRLKMISNRGTQVYPPTGGLTDLVDHYRCRFLYTGEGEAKDPEILDLVSRVASRFRWMHLEKLQEFDGEPGFTKAQGED
notes: as for B1
Work on B13 yielded a Km (A340 spectrophotometry [9]) of 34 ± 2 µM, a kcat (A340 spectrophotometry [9]) of 26 ± 1 s⁻¹ and a Km (A340 spectrophotometry [10]) of 39 ± 1 µM. The kcat (A340 spectrophotometry [10]) was 30 ± 2 s⁻¹.

B14: ttIDH (isocitrate dehydrogenase) (Thermus thermophilus HB8; S98E) (protein)
chain: B13 chain with S97E
notes: as for B1
B14 gave a Km (A340 spectrophotometry [9]) of 178 ± 28 µM, a kcat (A340 spectrophotometry [9]) of 0.19 ± 0.02 s⁻¹ and a Km (A340 spectrophotometry [10]) of 144 ± 21 µM. It also gave a kcat (A340 spectrophotometry [10]) of 0.12 ± 0 s⁻¹.

Reference: publication PMC12667214, “Phosphomimetic mutations near active sites of proteins in Thermus thermophilus suggest a widespread regulatory mechanism” (FEBS Open Bio, 2025)
